One substance from patent US20200009190A1 can be followed below.

In this test the target is CD200 expressed on FBL leukemia cells transduced with CD200 (CD200+ FBL) (UniProt O54901). The test is described as follows: cell-based or functional assay.
CD200 expressed on FBL leukemia cells transduced with CD200 (CD200+ FBL), sequence (O54901 31-278 limits assumed): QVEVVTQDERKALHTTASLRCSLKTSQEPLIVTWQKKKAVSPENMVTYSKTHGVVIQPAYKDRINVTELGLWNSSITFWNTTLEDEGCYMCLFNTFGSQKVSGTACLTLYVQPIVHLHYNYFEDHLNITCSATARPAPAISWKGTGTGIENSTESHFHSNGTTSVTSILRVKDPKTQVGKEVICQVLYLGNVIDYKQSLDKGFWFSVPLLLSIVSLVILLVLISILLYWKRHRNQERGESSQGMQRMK

For “CD200R-9aas-CD28Cys (murine construct V) (from UniProt Q9ES57 26-229; P31041 142-218)”, the accumulation of transduced T cells over multiple cycles of stimulation with irradiated CD200+ FBL stood at 3 fold; the fold enrichment, stimulation 3/stimulation 1 came to 3 fold; the lysis of CD200+ FBL (CFSE-based cytotoxicity assay) amounted to 40%; the percentage of cytokine non-producing cells (flow cytometry) turned out to be 27%. This substance displayed a percentage of polyfunctional cells producing all 3 cytokines (IFNγ, IL-2, TNFα) of 22%.
